# Measurements reported in the supplement of paper PMC7125110.
# ± gives the standard error. For some assays here: This sample holds only a part of the variants without activity.
# B1: glmS ribozyme (parent)
# chain: AUAAAAGCGCCAGAACUACAGAAAUGUAGUUGACGAGGAGGAGGUUUAUCGAAUUUUCGGCGGAUGCCUCCAAA
# What was measured:
# Details in all cases: with glucosamine-6-phosphate
# glucosamine-6-phosphate [1] = variants of: B1; assay: kcat; higher = faster cleavage; RNA array
# In short: (§1)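 Glucosamine-6-phosphate (40 μM to 10 mM) in HEPES/KCl/Mg(OAc)2 buffer was flowed over sequenced MiSeq chips, and tiles were imaged over ~14 h. Barcoded ribozyme variants there had been transcribed in situ by E. coli RNA polymerase and were tracked through a hybridised Cy3 probe at 37 °C. One- or two-exponential decay fits to per-tile medians, normalised to baseline and to non-cleaving reference variants, gave kobs. kcat and KM came from weighted Michaelis–Menten fits across concentrations.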
# glucosamine-6-phosphate [2] = variants of: B1; assay: self-cleavage kobs at 640 uM GlcN6P; higher = faster cleavage; RNA array
# In short: as §1
# glucosamine-6-phosphate [3] = variants of: B1; assay: self-cleavage kobs at 2500 uM GlcN6P; higher = faster cleavage; RNA array
# In short: as §1
# glucosamine-6-phosphate [4] = variants of: B1; assay: self-cleavage kobs at 10000 uM GlcN6P; higher = faster cleavage; RNA array
# In short: as §1
# glucosamine-6-phosphate [5] = variants of: B1; assay: KM; higher = weaker cofactor use; RNA array
# In short: as §1
# glucosamine-6-phosphate [6] = variants of: B1; assay: self-cleavage kobs at 40 uM GlcN6P; higher = faster cleavage; RNA array
# In short: as §1
# glucosamine-6-phosphate [7] = variants of: B1; assay: self-cleavage kobs at 160 uM GlcN6P; higher = faster cleavage; RNA array
# In short: as §1
Variant,kcat (glucosamine-6-phosphate [1]),self-cleavage kobs at 640 uM GlcN6P (glucosamine-6-phosphate [2]),self-cleavage kobs at 2500 uM GlcN6P (glucosamine-6-phosphate [3]),self-cleavage kobs at 10000 uM GlcN6P (glucosamine-6-phosphate [4]),KM (glucosamine-6-phosphate [5]),self-cleavage kobs at 40 uM GlcN6P (glucosamine-6-phosphate [6]),self-cleavage kobs at 160 uM GlcN6P (glucosamine-6-phosphate [7])
C16U C68A,3.77e-05 ± 5.5e-06 s⁻¹,4.99e-05 ± 1.5e-05 s⁻¹,2.73e-05 ± 1.3e-05 s⁻¹,3.74e-05 ± 7.6e-06 s⁻¹,,,
U45C U65C,0.000282 ± 2.2e-05 s⁻¹,,7.8e-05 ± 1.7e-05 s⁻¹,0.000167 ± 4.8e-05 s⁻¹,6720 ± 780 µM,,
G32A U54G,0.00257 ± 0.00027 s⁻¹,0.000536 ± 5.3e-05 s⁻¹,0.00121 ± 0.00012 s⁻¹,0.00207 ± 0.00024 s⁻¹,2600 ± 410 µM,3.07e-05 ± 7.9e-06 s⁻¹,0.000162 ± 2.6e-05 s⁻¹
A52C C70A,1.34e-05 ± 4e-06 s⁻¹,,,,,,
A12C G43A,6.99e-05 ± 1.2e-05 s⁻¹,,3.76e-05 ± 8.6e-06 s⁻¹,6.33e-05 ± 1.9e-05 s⁻¹,1870 ± 800 µM,,
A6C U54A,0.000158 ± 2.8e-05 s⁻¹,,4.87e-05 ± 1.5e-05 s⁻¹,9.38e-05 ± 1.7e-05 s⁻¹,6600 ± 2300 µM,,
G13U G41C,0.000161 ± 1.8e-05 s⁻¹,< 1e-05 s⁻¹,,,,< 1e-05 s⁻¹,< 1e-05 s⁻¹
A39G C70A,0.000304 ± 4.8e-05 s⁻¹,0.000306 ± 4.3e-05 s⁻¹,0.000172 ± 7.3e-05 s⁻¹,0.000303 ± 5e-05 s⁻¹,158 ± 60 µM,6.17e-05 ± 1.2e-05 s⁻¹,0.000136 ± 3.1e-05 s⁻¹
U46C U56C,0.000648 ± 3.9e-05 s⁻¹,0.000246 ± 7.8e-05 s⁻¹,0.000514 ± 0.00014 s⁻¹,0.000596 ± 7.5e-05 s⁻¹,866 ± 190 µM,,
A12C A14U C16U U46G,3.1e-05 ± 6.8e-06 s⁻¹,,,,,,
G29A,0.00814 ± 0.00078 s⁻¹,0.00201 ± 9.3e-05 s⁻¹,0.00558 ± 0.00024 s⁻¹,0.00697 ± 0.00023 s⁻¹,1590 ± 200 µM,0.000207 ± 4.5e-06 s⁻¹,0.000639 ± 6.2e-05 s⁻¹
C16U U65A,0.00359 ± 0.00068 s⁻¹,0.000817 ± 0.00011 s⁻¹,0.00193 ± 0.00025 s⁻¹,0.00276 ± 0.00049 s⁻¹,2370 ± 610 µM,7.34e-05 ± 1.2e-05 s⁻¹,0.000189 ± 2.9e-05 s⁻¹
A33G C58G,< 1e-05 s⁻¹,,,< 1e-05 s⁻¹,,,
G40A U45C C70U,0.000583 ± 6.9e-05 s⁻¹,0.000105 ± 2.7e-05 s⁻¹,0.000288 ± 8e-05 s⁻¹,0.000432 ± 0.00015 s⁻¹,2900 ± 550 µM,,
A12G A53C,0.000173 ± 3.8e-05 s⁻¹,5e-05 ± 6.8e-06 s⁻¹,7.64e-05 ± 8.5e-06 s⁻¹,0.000157 ± 1.5e-05 s⁻¹,2220 ± 1100 µM,,
G43U A73U,4.34e-05 ± 8.8e-06 s⁻¹,,4.73e-05 ± 2.1e-05 s⁻¹,3.88e-05 ± 1e-05 s⁻¹,,,
A15C C16A C70U C71U,2.86e-05 ± 3.8e-06 s⁻¹,,2.89e-05 ± 1.3e-05 s⁻¹,,,,
G26U C70G,0.000115 ± 1e-05 s⁻¹,9.17e-05 ± 1.7e-05 s⁻¹,0.000117 ± 1.6e-05 s⁻¹,9.26e-05 ± 2.8e-05 s⁻¹,142 ± 48 µM,,6.66e-05 ± 1.3e-05 s⁻¹

Variant,kcat (glucosamine-6-phosphate [1]),self-cleavage kobs at 640 uM GlcN6P (glucosamine-6-phosphate [2]),self-cleavage kobs at 2500 uM GlcN6P (glucosamine-6-phosphate [3]),self-cleavage kobs at 10000 uM GlcN6P (glucosamine-6-phosphate [4]),KM (glucosamine-6-phosphate [5]),self-cleavage kobs at 40 uM GlcN6P (glucosamine-6-phosphate [6]),self-cleavage kobs at 160 uM GlcN6P (glucosamine-6-phosphate [7])
A12G C71G,0.000425 ± 2.2e-05 s⁻¹,5.45e-05 ± 6.3e-06 s⁻¹,0.00015 ± 1.6e-05 s⁻¹,0.000298 ± 3.1e-05 s⁻¹,4400 ± 370 µM,,
G29U U54G,0.00305 ± 0.00096 s⁻¹,0.00114 ± 0.00016 s⁻¹,0.0013 ± 0.00024 s⁻¹,0.00321 ± 0.00046 s⁻¹,1760 ± 820 µM,7.25e-05 ± 1.3e-05 s⁻¹,0.000223 ± 4.1e-05 s⁻¹
U65A C67G,0.000463 ± 7.8e-05 s⁻¹,0.000173 ± 2.2e-05 s⁻¹,0.000422 ± 6.2e-05 s⁻¹,0.000386 ± 6.4e-05 s⁻¹,958 ± 270 µM,2.9e-05 ± 8.7e-06 s⁻¹,6.44e-05 ± 9.1e-06 s⁻¹
G37C C58A G66A C70A C71A,2.19e-05 ± 8.6e-06 s⁻¹,,,,,,
C10U C67G,2.65e-05 ± 6.6e-06 s⁻¹,,2.88e-05 ± 1.1e-05 s⁻¹,,,,
C10G C11A,< 1e-05 s⁻¹,< 1e-05 s⁻¹,,,,< 1e-05 s⁻¹,
U46A U47G,0.00143 ± 0.00056 s⁻¹,0.000647 ± 0.00013 s⁻¹,0.00107 ± 0.00027 s⁻¹,0.00106 ± 0.00029 s⁻¹,,,9.77e-05 ± 3.5e-05 s⁻¹
C67A C70G,3.41e-05 ± 3.9e-06 s⁻¹,4.26e-05 ± 9.9e-06 s⁻¹,2.92e-05 ± 7.8e-06 s⁻¹,3.34e-05 ± 5.8e-06 s⁻¹,,,
A6G G32A,< 1e-05 s⁻¹,,,,,< 1e-05 s⁻¹,
G44A C71U,9.17e-05 ± 8.5e-06 s⁻¹,2.9e-05 ± 1e-05 s⁻¹,7.37e-05 ± 9.8e-06 s⁻¹,7.95e-05 ± 9.2e-06 s⁻¹,1020 ± 370 µM,,
U47G C50G C68U,6.02e-05 ± 2e-05 s⁻¹,,7.59e-05 ± 1.6e-05 s⁻¹,3.03e-05 ± 1.3e-05 s⁻¹,,,7.17e-05 ± 9.5e-06 s⁻¹
C8G U57A C70A,5.04e-05 ± 1.1e-05 s⁻¹,,,,,,
A14G U47A,0.00972 ± 0.0015 s⁻¹,0.00942 ± 0.0021 s⁻¹,0.00943 ± 0.002 s⁻¹,0.00772 ± 0.0019 s⁻¹,275 ± 78 µM,0.00113 ± 0.00022 s⁻¹,0.0041 ± 0.0011 s⁻¹
G37C U57G,1.13e-05 ± 4.5e-06 s⁻¹,,,< 1e-05 s⁻¹,,,< 1e-05 s⁻¹
U31G G59A C70G,3.81e-05 ± 8.1e-06 s⁻¹,,3.86e-05 ± 1.5e-05 s⁻¹,,,,
U30C A33U,1.74e-05 ± 7.2e-07 s⁻¹,,,,944 ± 280 µM,,
G32U U47G,0.000502 ± 8.1e-05 s⁻¹,5.12e-05 ± 1.7e-05 s⁻¹,0.000189 ± 3.3e-05 s⁻¹,0.000336 ± 4.6e-05 s⁻¹,4700 ± 1400 µM,,
